From the nanobody polyreactivity screen of Harvey et al. (2022)

Assay: yeast display, Sf9 membrane polyspecificity reagent, FACS + sequencing; frameworks hold sequencing errors
Outline: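 Genes from sorted yeast were amplified by colony PCR, read by MiSeq 2 × 250 sequencing and filtered on CDR length. These cells carried a synthetic nanobody library in Saccharomyces cerevisiae BJ5465 and were sorted by FACS into low and high (top ~1%) gates on anti-HA and streptavidin fluorescence. Polyreactivity is labelled according to the gate of origin.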

For “QVQLVESGGGLVQAGGSLRLSCAASGRTFLWYDMGWYRQAPGKERELVAGITSDGITYYADSVKGRFTISRDNAKNTVNLQMNSLKPEDTAVYYCAADGIYPDAVYFGYPMYYWGQGTQVTVSS”, which “polyreactivity (PSR sort gate)” value is on record?
Its value is “low polyreactivity”.

Which “polyreactivity (PSR sort gate)” value does the source give for “QVQLVESGGGLVQAGGSLRLSCAATGLTFYLNAMGWYRQAPGKEREFVAAINYSVGSTYYADSVKGRFTISRDNAKNTVYLQMNSLKPEDTAVFYCAADGYLYFKVDNEYWGQGTQVTVSS” here?
The value was “low polyreactivity”.

With “QVQLVESGGGLVQAGGSLRLSCAASGSIFPDNTMGWYRQAPGKERELVAAIDGRGGTTYYADSVKGRFTISRDNAKNTVYLQMNSLKPEDTAVYYCARDIGHSARYDYWGQGTQVTVSS” as the sequence, how does the “polyreactivity (PSR sort gate)” value read?
The value was “low polyreactivity”.

With “QVQLVESGGGLVQAGGSLRLTCAASGRIFVKNAMGWYRQAPGKERELVATICSGGNTNYADSVKGRFTISRDNAKNTVYLQMNSLKPEDTAVYYCAAVWDLGDYELPYDYWGLGTQVTVSS” as the sequence, how does the “polyreactivity (PSR sort gate)” value read?
Its value is “low polyreactivity”.

For “QVQLVESGGGLVQAGGSLRLSCAASGRTFYKNTMGWYRQAPGKERELVATITRRGGTTYYADSVKGRFTISRDNAKNTVYLQMNSLKPEDTAVYYCAKDASTEKYDYWGQGTQVTVSS”, which “polyreactivity (PSR sort gate)” value is on record?
The value was “low polyreactivity”.

For “QVQRVESGGGLVQAGGSLRVSCAASGSTFYVYGMGWYRQAPGKERELVAAISWSGGDTYYADSVKGRCTISRDNAKNTVYLQMNRLKPEDTAVYYCAAVYNYPVVGEYDYWGQGTQVTVSA”, which “polyreactivity (PSR sort gate)” value is on record?
Its value is “high polyreactivity”.

With “QVQLVESGGGLVQAGGSLRLSCAASGRTFRRNAMGWYRQAPGKERELVAAISWRGVSTYYADSVKGRFTISRDNAKNTVYLQMNSLKPEDTAVYYCAVDFLYTRRDYWGQGTQVTVSS” as the sequence, how does the “polyreactivity (PSR sort gate)” value read?
Its value is “high polyreactivity”.

For “QDQLVESGGGLVQAGGSLRLSCAASGSNFDRYTMGWYRQAPGKERELLAAITRRGGSTNYADSVKGRFTISRDNAKFTVYLQMISLKPEDTALYYCARATDLNDKPSWDEYWGQGTQVTVSS”, which “polyreactivity (PSR sort gate)” value is on record?
The value was “high polyreactivity”.

With “QVQLVESGGGLVQAGGSLRLSCAASGITFPRNAMGWYRQAPGKERELVAAISARGGNTYYADSVKGRFTISRDNSKNTVYLQMNSLKPEDTAVYYCNALGSSYSEPSEYDYWGQGTQVTVSS” as the sequence, how does the “polyreactivity (PSR sort gate)” value read?
Its value is “low polyreactivity”.

For “QVQLVESGGGLFQAGGSLRLSCAASGSTLYEYAMGWYRQAPGKERELVAAINWSGGSTYYADSVKGRFTISRDNAKNTVYLQMNSLKPEDTAVYYCNRVKTGSTYRRRYWSMGYWGQGTQVTVSS”, which “polyreactivity (PSR sort gate)” value is on record?
Its value is “high polyreactivity”.

With “QVQLVESGGGLVQAGGSLRLSCAASGLTFYYYAMGWYRQAPGKEREIVAAISRSGGTTYYADSVKGRFTISRDTAKNTVYLQMNSLKPEDTAVYYCNAQWWRYWPSQVIFDYWGQGTQVTVSS” as the sequence, how does the “polyreactivity (PSR sort gate)” value read?
The value was “high polyreactivity”.

With “QVQLVESGGGLVQAGGSLRLSCAASGSTFAKYTMGWYRQAPGKERELVAAISQRGGSTYYADSVKGRFTISRDNAKNTVYLQMNSLKPEDTAVYYCNVRAYAWRYEYWGQGTQVTVSS” as the sequence, how does the “polyreactivity (PSR sort gate)” value read?
The value was “high polyreactivity”.

Which “polyreactivity (PSR sort gate)” value does the source give for “QFQLVESGGGLVHAGGSLRLSCASSGSIFVVYAMGWYRQAPGKEREFVASIRTGGSTNYADSVKGRFTISRDNAKNTVYLQMNSLKPEDTAVYYCAAASWNSNRHYYVARYYYWGQGTQVTVSS” here?
The value was “high polyreactivity”.

For “QVQLVESGGGLVQAGGSLRLSCAASGSTFEYYAMGWYRQAPGKERELVAAITGSGDNTYYADSVKGRFTISRDYAKNTVYLQMNSLKPEDTAVYYCAATLRVKGQYGRMYYWGQGTQVTVSS”, which “polyreactivity (PSR sort gate)” value is on record?
The value was “high polyreactivity”.

Which “polyreactivity (PSR sort gate)” value does the source give for “QVQLVESGGGLVQAGGSLRLSCAASGRTFKAYAMGWYRQAPGKERELVAAISYSTTSTYYADSVKGRFTISRDNAKNTVYLQMNSLKPEDTAVYYCAVDYIIWYDGYLLYYWGQGTQVTVSS” here?
The value was “low polyreactivity”.

For “QVQLVESGGGLVQAGGSLRLSCAASGSTFVGYAMGWYRQAPGKERELVAAISSSGSTNYADSVKGRFTISRDNAKNTVYLQMNSLKPEDTAVYYCAALYSYFWLIIDYGYWGQGTQVTVSS”, which “polyreactivity (PSR sort gate)” value is on record?
Its value is “low polyreactivity”.

With “HAQLQESGGGLVQAGGSLRRSCAASGSIFRFSGMGWYRRAPGKERELVASIGFGSITYYADRVKGRFTISRDHANNTVYLQMNSLKPEDTAVYYCAVQVQDESWLDYWGQGTQVTVSC” as the sequence, how does the “polyreactivity (PSR sort gate)” value read?
The value was “low polyreactivity”.

For “KVQLVESGGGLVQAGGSLRLSCADSGIFRYYAMGWYRQAPGKEREFVAAMTRGGSTNYADSVKGRFTISRDNAKNSVYLQMNSLKPEDTEVYYCARDGYREFDWGQGTQVTVSS”, which “polyreactivity (PSR sort gate)” value is on record?
The value was “high polyreactivity”.

Which “polyreactivity (PSR sort gate)” value does the source give for “QVQLVESGGGLVQAGGSLRLSCAASGLTFPYNVMGWYRQAPGKERELVASITSVGTTDYADSVKGRFTISRDNAKNTVYLQMNSLNPEDTAVYYCAADVTLFYWWYGKEDYDYWGQGTEVTVSS” here?
The value was “low polyreactivity”.

For “QVQLVESGGGLVQAGGSLRLSCAASGGTFWVYAMGWYRQAPGKERELVAAIRWRGGRTYYADSVKGRFTISRDNAKNTVYLQMNSLKPEDTEVYYCAATTWRSGRYNYWGQGTQVTVSS”, which “polyreactivity (PSR sort gate)” value is on record?
Its value is “high polyreactivity”.

For “QVQLVESGGGLVQAGGSLRLSCAASGRTFYRNAMGWYRQAPGKERELVARISRNGGTTYYADSVKGRFTISRDNAKNTVYLQMNSLKPEDTAVYYCAAPIYDGARGDYWGQGTQVTVSS”, which “polyreactivity (PSR sort gate)” value is on record?
The value was “high polyreactivity”.

For “QVQLVESGGGLVQAGGSLRLSCAASGFTFRYYAMGWYRQAPGKEREFVAAISWDGGITYYADSVKGRFTISRDNAKNTVYLQMNSLKPEDTAVYYCAADVIWESDYWGQGTQVTVSS”, which “polyreactivity (PSR sort gate)” value is on record?
The value was “high polyreactivity”.
